T1: cynomolgus monkey FcγRIIB (cynomolgus monkey, UniProt A0A140HDP4 43-312)
T1 construct: whole, on cells; also called FcγRIIB in other species
T1 sequence: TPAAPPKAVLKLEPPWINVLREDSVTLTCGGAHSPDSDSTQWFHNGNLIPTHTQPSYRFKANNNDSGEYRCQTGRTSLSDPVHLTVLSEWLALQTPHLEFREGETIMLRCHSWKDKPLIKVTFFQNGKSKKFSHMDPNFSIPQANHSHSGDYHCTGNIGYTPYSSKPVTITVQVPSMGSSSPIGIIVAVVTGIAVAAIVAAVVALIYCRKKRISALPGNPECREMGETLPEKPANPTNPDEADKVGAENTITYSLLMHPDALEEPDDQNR

T2: rat FcγRIIB (rat, UniProt A0A0G2K9R6 42-295)
T2 construct: also called FcγRIIB in other species
T2 sequence: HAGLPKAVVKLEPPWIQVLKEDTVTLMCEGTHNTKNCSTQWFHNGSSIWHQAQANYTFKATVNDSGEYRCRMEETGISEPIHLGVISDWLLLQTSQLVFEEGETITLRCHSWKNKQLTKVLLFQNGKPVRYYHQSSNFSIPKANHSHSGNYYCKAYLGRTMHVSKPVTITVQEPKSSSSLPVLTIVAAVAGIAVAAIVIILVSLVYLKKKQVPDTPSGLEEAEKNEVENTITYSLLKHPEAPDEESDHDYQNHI

T3: mouse FcγRIIB (mouse, UniProt P08101 30-330)
T3 construct: whole, on cells; also called mFcγRII; FcγRIIB in other species
T3 sequence (looked up): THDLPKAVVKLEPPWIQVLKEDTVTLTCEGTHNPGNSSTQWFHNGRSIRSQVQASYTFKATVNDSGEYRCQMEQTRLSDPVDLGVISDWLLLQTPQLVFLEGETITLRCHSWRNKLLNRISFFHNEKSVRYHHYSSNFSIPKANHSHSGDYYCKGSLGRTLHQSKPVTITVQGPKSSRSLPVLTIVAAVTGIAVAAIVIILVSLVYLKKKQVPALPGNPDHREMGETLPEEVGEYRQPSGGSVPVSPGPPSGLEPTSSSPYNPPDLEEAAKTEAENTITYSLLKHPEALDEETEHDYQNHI

T4: Soluble hFcγRIIB (R & D Systems) (human, UniProt P31994 46-217)
T4 construct: Bought reagent; also called hFcγRIIB fusion protein
T4 sequence (looked up): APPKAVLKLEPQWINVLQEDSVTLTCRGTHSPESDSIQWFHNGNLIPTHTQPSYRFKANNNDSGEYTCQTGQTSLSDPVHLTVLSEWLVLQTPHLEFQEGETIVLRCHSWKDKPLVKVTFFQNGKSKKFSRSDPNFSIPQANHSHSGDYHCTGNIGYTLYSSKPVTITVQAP

T5: human FcγRIIB on cells (human, UniProt P31994 43-310)
T5 construct: whole, on cells; also called hFcγRIIB; CD32B
T5 sequence (looked up): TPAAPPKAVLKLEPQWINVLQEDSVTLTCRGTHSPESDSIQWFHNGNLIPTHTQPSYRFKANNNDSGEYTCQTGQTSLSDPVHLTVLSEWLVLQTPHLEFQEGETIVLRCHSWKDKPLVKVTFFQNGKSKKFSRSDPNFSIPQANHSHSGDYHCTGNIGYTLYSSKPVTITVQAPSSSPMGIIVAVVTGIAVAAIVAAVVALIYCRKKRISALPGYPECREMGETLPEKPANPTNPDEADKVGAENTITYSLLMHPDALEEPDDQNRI

T6: human FcγRIIA on cells (human, UniProt P12318 34-317)
T6 construct: whole, on cells; also called hFcγRIIA; FcγRIIA^+ve CHO
T6 sequence (looked up): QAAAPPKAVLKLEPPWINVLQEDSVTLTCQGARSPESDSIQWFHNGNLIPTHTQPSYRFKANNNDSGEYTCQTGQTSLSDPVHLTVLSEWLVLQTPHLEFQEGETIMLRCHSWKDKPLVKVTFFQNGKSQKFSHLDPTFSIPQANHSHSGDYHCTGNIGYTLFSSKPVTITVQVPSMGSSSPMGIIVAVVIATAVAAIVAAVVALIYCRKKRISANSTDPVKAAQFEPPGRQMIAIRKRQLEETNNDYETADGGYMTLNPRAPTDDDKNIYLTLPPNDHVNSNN


How the values were obtained:
[1] = target: T1, cynomolgus monkey FcγRIIB; assay: IHC on frozen tissue sections
[2] = target: T2, rat FcγRIIB; assay: IHC on frozen tissue sections
[3] = target: T3, mouse FcγRIIB; assay: IHC on frozen tissue sections
[4] = target: T4, Soluble hFcγRIIB (R & D Systems); assay: SPR, mAb immobilised, soluble hFcγRIIB injected
Procedure: (§1) A BIAcore T100 analyzer (GE Healthcare, UK) was used to determine the binding affinity of the hFcγRIIB mAb, as described elsewhere.²⁵ mAb were immobilized onto a CM5 sensorchip (GE Healthcare, UK), using standard amine coupling according to the manufacturer's instructions. Soluble hFcγRIIB (0.16-100 nM; R & D Systems, UK) was injected for 5 minutes and dissociation monitored for 10 minutes. Background binding to the control flow cell was monitored and subtracted automatically. The KD values were calculated from the 1:1 binding model using the BIAcore T100 Evaluation software.

[5] = target: T4, Soluble hFcγRIIB (R & D Systems); assay: SPR, mAb immobilised, soluble hFcγRIIB injected; column headed KD (1/s)
Procedure: as §1

[6] = target: T4, Soluble hFcγRIIB (R & D Systems); assay: SPR, mAb immobilised, soluble hFcγRIIB injected; column headed KA (1/MS)
Procedure: as §1

[7] = target: T4, Soluble hFcγRIIB (R & D Systems); assay: SPR (Biacore T100), mAb immobilised on CM5, soluble hFcγRIIB injected, 1:1 model
Procedure: as §1

[8] = target: T4, Soluble hFcγRIIB (R & D Systems); assay: SPR (Biacore T100), mAb immobilised on CM5, soluble hFcγRIIB injected, 1:1 model; column headed KD (1/s)
Procedure: as §1

[9] = target: T4, Soluble hFcγRIIB (R & D Systems); assay: SPR (Biacore T100), mAb immobilised on CM5, soluble hFcγRIIB injected, 1:1 model; column headed KA (1/MS)
Procedure: as §1

[10] = target: T5, human FcγRIIB on cells; assay: inhibition of binding of IC to hFcγRIIB-transfected cells by the mAb [2/2) bottom]
[11] = target: T5, human FcγRIIB on cells; assay: binding to hFcγRIIB-transfected cells, total fluorescence intensity against mAb concentration [2/2) bottom]
[12] = target: T6, human FcγRIIA on cells; assay: binding to FcγRIIA-transfected CHO-k1 cells
[13] = target: T4, Soluble hFcγRIIB (R & D Systems); assay: SPR, mAb immobilised, soluble hFcγRIIB injected; Table 2 gives the same values for 6G08
Procedure: as §1

[14] = target: T4, Soluble hFcγRIIB (R & D Systems); assay: SPR, mAb immobilised, soluble hFcγRIIB injected; column headed KD (1/s); Table 2 gives the same values for 6G08
Procedure: as §1

[15] = target: T6, human FcγRIIA on cells; assay: binding to FcγRIIA-transfected CHO-k1 cells; remark: listed apart in the source
[16] = target: T5, human FcγRIIB on cells; assay: flow cytometry, mAb at 0.1, 1 and 10 µg/ml on B cells, MFI
[17] = target: T6, human FcγRIIA on cells; assay: flow cytometry on human PBMC populations, MFI; monocytes and neutrophils read as hFcγRIIA-bearing as in the legend

Binder	Kd [4]	koff [5]	kon [6]	Kd [7]	koff [8]	kon [9]	binding result [16]	also measured
7C07 (antibody, human IgG1, V domains shown, Antagonistic hFcγRIIB mAb, human IgG1 (WT); Only VH/VL tied to the clone; also called Antibody clone: 7C07) VH: EVQLLESGGGLVQPGGSLRLSCAASGFTFSSYGMHWVRQAPGKGLEWVAVISYDGSNKYYADSVKGRFTISRDNSQNTLYLQMNSLRAEDTAVYYCAREFGYIILDYWGQGTLVTVSS VL: not shown	23.9 nM	0.0185 s⁻¹	913000 M⁻¹ s⁻¹	23.9 nM	0.0185 s⁻¹	913000 M⁻¹ s⁻¹		binding result [1]: no binding; binding result [2]: no binding; binding result [3]: no binding
5C04 (antibody, human IgG1, V domains shown, hFcγRIIB mAb, human IgG1 (WT); Only VH/VL tied to the clone; also called Antibody clone: 5C04) VH: EVQLLESGGGLVQPGGSLRLSCAASGFTFSNYGMHWVRQAPGKGLEWVAVISYDGSNKYYADSVKGRFTISRDNSKNTLYLQMNSLRAEDTAVYYCAREWRDAFDIWGQGTLVTVSS VL: QSVLTQPPSASGTPGQRVTISCTGSSSNIGAGYDVHWYQQLPGTAPKLLIYSDNQRPSGVPDRFSGSKSGTSASLAISGLRSEDEADYYCAAWDDSLSGSWVFGGGTKLTVLG	142 nM	0.0481 s⁻¹	324000 M⁻¹ s⁻¹	142 nM	0.0481 s⁻¹	324000 M⁻¹ s⁻¹		IC50 (read off the curve) [10]: ~0.6 nM; EC50 (read off the curve) [11]: ~0.4 nM
5G08 (antibody, human IgG1, V domains shown, hFcγRIIB mAb, human IgG1 (WT); Only VH/VL tied to the clone; also called Antibody clone: 5G08) VH: EVQLLESGGGLVQPGGSLRLSCAASGFTFNNYGMHWVRQAPGKGLEWVAVISYDGSNRYYADSVKGRFTMSRDNSKNTLYLQMNSLRAEDTAVYYCARDRWNGMDVWGQGTLVTVSS VL: not shown								binding result [12]: no binding; Kd [13]: 713 nM; koff [14]: 0.337 s⁻¹
5C05 (antibody, human IgG1, V domains shown, hFcγRIIB mAb, human IgG1 (WT); Only VH/VL tied to the clone; also called Antibody clone: 5C05) VH: EVQLLESGGGLVQPGGSLRLSCAASGFTFSTYGMHWVRQAPGKGLEWVAVISYDGSNKYYADSVKGRFTISRDNSKNTLYLQMNSLRAEDTAVYYCARENFDAFDVWGQGTLVTVSS VL: QSVLTQPPSASGTPGQRVTISCTGSSSNIGAGYDVHWYQQLPGTAPKLLIYSNSQRPSGVPDRFSGSKSGTSASLAISGLRSEDEADYYCAAWDDSLNGQVVFGGGTKLTVLG	2210 nM	0.00177 s⁻¹	802 M⁻¹ s⁻¹	2210 nM	0.00177 s⁻¹	802 M⁻¹ s⁻¹		binding result [15]: no binding
1C04 (antibody, human IgG1, V domains shown, Only VH/VL tied to the clone; also called Antibody clone: 1C04) VH: EVQLLESGGGLVQPGGSLRLSCAASGFTFSSYAMSWVRQAPGKGLEWVSSISDSGAGRYYADSVEGRFTISRDNSKNTLYLQMNSLRAEDTAVYYCARTHDSGELLDAFDIWGQGTLVTVSS VL: not shown							no binding (tested: 10 µg/ml)	
2A09 (antibody, human IgG1, V domains shown, Only VH/VL tied to the clone; also called Antibody clone: 2A09) VH: EVQLLESGGGLVQPGGSLRLSCAASGFTFSNAWMSWVRQAPGKGLEWVAYISRDADITHYPASVKGRFTISRDNSKNTLYLQMNSLRAEDTAVYYCTTGFDYAGDDAFDIWGQGTLVTVSS VL: not shown							no binding (tested: 10 µg/ml)	
6A09 (antibody, human IgG1, V domains shown, hFcγRIIB mAb said to be likely dual-specific for hFcγRIIA and B; human IgG1 (WT); Only VH/VL tied to the clone; also called Antibody clone: 6A09) VH: EVQLLESGGGLVQPGGSLRLSCAASGFTFSSYGMHWVRQAPGKGLEWVAVTSYDGNTKYYANSVKGRFTISRDNSKNTLYLQMNSLRAEDTAVYYCAREDCGGDCFDYWGQGTLVTVSS VL: QSVLTQPPSASGTPGQRVTISCTGSSSNIGAGYDVHWYQQLPGTAPKLLIYGNSNRPSGVPDRFSGSKSGTSASLAISGLRSEDEADYYCAAWDDSLNEGVFGGGTKLTVLG								binding result [17]: binds
1E05 (antibody, human IgG1, V domains shown, Only VH/VL tied to the clone; also called Antibody clone: 1E05) VH: EVQLLESGGGLVQPGGSLRLSCAASGFTFSTYAMNWVRQVPGKGLEWVAVISYDGSNKNYVDSVKGRFTISRDNSKNTLYLQMNSLRAEDTAVYYCARNFDNSGYAIPDAFDIWGQGTLVTVSS VL: QSVLTQPPSASGTPGQRVTISCTGSSSNIGAGYDVHWYQQLPGTAPKLLIYDNNSRPSGVPDRFSGSKSGTSASLAISGLRSEDEADYYCAAWDDSLGGPVFGGGTKLTVLG							no binding (tested: 10 µg/ml)	
6G08 (antibody, human IgG1, V domains shown, hFcγRIIB mAb (agonistic), human IgG1 (WT); Only VH/VL tied to the clone; also called Antibody clone: 6G08) VH: EVQLLESGGGLVQPGGSLRLSCAASGFTLSSYGISWVRQAPGKGLEWVSGISGSGGNTYYADSVKGRFTISRDNSKNTLYLQMNSLRAEDTAVYYCASSVGAYANDAFDIWGQGTLVTVSS VL: QSVLTQPPSASGTPGQRVTISCTGSSSNIGAGYDVHWYQQLPGTAPKLLIYGDTNRPSGVPDRFSGSKSGTSASLAISGLRSEDEADYYCAAWDDSLNGPVFGGGTKLTVLG				713 nM	0.337 s⁻¹	472000 M⁻¹ s⁻¹		binding result [12]: no binding
